Test results published in patent publication US20250154215A1, “PHARMACEUTICAL COMPOSITION FOR TREATING COLITIS OR COLORECTAL CANCER COMPRISING COLON-TARGETED S100A8/A9-DERIVED SPECIFIC PEPTIDE” (Industry-University Cooperation Foundation Hanyang …, priority 2023, published 2025).

Design: species or system mice
Details: mouse, in vivo, ip, 1 mg/kg
Description: Female C57BL/6 mice with body weight of 16 to 18 g were used for PK studies. S100A8/A9 peptide or rCT-S100A8/A9 protein (1 mg/kg) was administered to the mice by intraperitoneal injection. Whole blood samples ([…]) were collected serially from the orbital vein at 0.17, 0.5, 1, 2, 4, and 6 hours after drug administration. Blood samples were centrifuged at 12,000 rpm for five minutes at 4° C., and plasma was collected. To a 10 μL plasma sample, 20 μL of 0.1% formic acid in acetonitrile was added along with amlodipine, which was an internal standard (IS), at a concentration of 500 ng/mL, and the resulting mixture was vortexed. Samples were then centrifuged at 13,200 rpm for five minutes, and 10 μL aliquots were injected for LC-MS/MS analysis.

B1: TWYKIAFQRNRKTWYKIAFQRNRKTWYKIAFQRNRKTWYKIAFQRNRKTWYKIAFQRNRKGGFLVIKGGAHKSHKGGITIITFGGGHHGGFLVIKGGAHKSHKGGITIITFGGGHHGGFLVIKGGAHKSHKGGITIITFGGGHHGG (protein)
chain: TWYKIAFQRNRKTWYKIAFQRNRKTWYKIAFQRNRKTWYKIAFQRNRKTWYKIAFQRNRKGGFLVIKGGAHKSHKGGITIITFGGGHHGGFLVIKGGAHKSHKGGITIITFGGGHHGGFLVIKGGAHKSHKGGITIITFGGGHHGG
modifications: N-terminal 6xHis tag
AUC values and half-life: well maintained in the blood at effective drug concentrations
